For one test, the system named is mouse ES cells. Description: Sox17 endoderm induction in mouse ES cell monolayer cultures. The test is classed as cell-based. Particulars: for percent of total cells Sox17/dsRed double positive: Sox17-dsRed mouse ES cells, day 6, low serum. How it is done: (§1) Mouse ES cells were routinely cultured on irradiated CF-1 MEF feeder cells in DMEM (Gibco) media supplemented with 15% Fetal Bovine Serum (HyClone FBS, Invitrogen), 2 mM L-glutamine (L-Glu, Gibco), 1.1 mM 2-mercaptoethanol (Gibco), 1 mM nonessential amino acids (Gibco), 1× penicillin/streptomycin (P/S, Gibco) and 5×10^5 units LIF (Chemicon). Cells were passaged at the ratio of 1:6-1:12 every 2-3 days using 0.25% trypsin. To generate the starting population, mouse ES cells was cultured on MEF feeder cells until they reached 80-90% confluence. Prior to differentiation, ES cells were passaged onto gelatin coated plates for 30 min to remove MEFs. MEF depleted ES cells were seeded at 2500 cells per cm^2 on gelatinized plates. After overnight culture, cells were exposed to 25 ng/ml Wnt3a (R&D Systems)+50 ng/ml recombinant Activin A (R&D Systems) or 500 ng/ml Nodal (R&D Systems) in DMEM (Gibco) supplemented with 1×L-Glu and 0.2% FBS (Gibco) for 1 day, then Activin A or Nodal in the same media and cultured for 4-6 days to induce endoderm differentiation. For the chemical inductions, compounds IDE1 and IDE2 (provided by Stuart L. Schreiber) were added at 5 μM concentration in the differentiation media. For pancreatic progenitors induction, the cells were transferred to 50 ng/ml FGF10 (R&D Systems), 0.75 μM KAAD-cyclopamine (Calbiochem) and 2 μM RA (Sigma) or Indolactam V 330 nM (Axxora) in DMEM supplemented with 1×L-Glu, 1×PS, 1×B27 (Invitrogen) for 4 days. SHB431542 was purchased from Sigma. All stock compounds were made with either DMSO or PBS
(§2) Cells were fixed in 4% paraformaldehyde (Sigma) in PBS for 20 min at 4° C. followed by a wash with PBS. Cells were blocked with 10% donkey serum (Jackson Immunoresearch) in PBS/0.1% Triton X and incubated with primary antibodies overnight at 4° C. Secondary antibodies were incubated for 1 h at room temperature. The following antibodies and dilutions were used: goat anti-SOX17, (1:500 R&D systems); rabbit anti-PDX1 (1:200, Chemicon), rabbit anti-FoxA2 (1:500; Upstate), rabbit anti-Dab2 (1:200, Santa Cruz), rabbit anti-SPARC (1:200, Santa Cruz,), mouse anti-AFP (1:100, Sigma), anti-Gata6 (1:50, Santa Cruz Biotech), goat anti-HNF6 (1:200, Santa Cruz Biotech), rabbit anti-RFP/DsRed (1:300, MBL), rabbit anti-GFP (1:200, Molecular Probes). Secondary antibodies were: rhodamine Red-X-conjugated donkey anti-goat antibody, 1:200 (JIRL), Alexa-488-conjugated goat anti-mouse and Alexa-594-conjugated goat anti-rabbit antibodies (1:300, Molecular Probes). Nuclei were visualized by Hoechst 33342 (1:1000, Molecular Probes). Images were taken using an Olympus IX70 Microscope. For quantification images were analyzed for the frequency of SOX17+, FoxA2+ or Pdx1+ cells using Metamorph image analysis software (Molecular Devices) and at least 6 images per well were collected. Data were confirmed in four independent experiments.
Endoderm formation was monitored by Sox17 expression by either flow cytometry detection of Sox17/DsRed or immunofluorescence using anti-Sox17 antibodies. Cells labeled by antibody staining were quantified using Metamorph software ad percentage of total cell number (based on Hoechst 33342 nuclei staining). All conditions were tested in either tri- or quadruplicates.

In the next test the test system is Smad2. Description: Western blot analysis of Smad2 phosphorylation in ES cell lysates. Format: cell-based, mouse. Particulars: for phosphorylation of Smad2 by IDE1 or IDE2 in the presence of the ALK4/5/7 inhibitor: mouse ES cells, co-treatment; for phosphorylation of Smad2 / activation of the TGF-β pathway: ES cell lysates, after 24 hrs or longer. The method, then: Cells were lysed in 1×RIPA lysis buffer in the presence of protease inhibitor mixture (Roche)/1% phosphatase inhibitor mixture (Roche). Proteins were separated by 10% Tris-Glycine SDS/PAGE (Bio-rad) under denaturing conditions and transferred to a nitrocellulose membrane. After blocking with 5% skim milk in PBS/0.1% Triton X, the membrane was incubated with primary antibodies against phospho-Smad2 (1:1000, Cell Signaling) overnight at 4° C. The membrane was then washed, incubated with anti-mouse/rabbit peroxidase-conjugated affinity-purified secondary antibody (1:1000, Cell Signaling) at room temperature for 1 h, and developed by SuperSignal chemiluminescence (Pierce).
A general note: In western blotting, separated proteins are transferred to a membrane and probed.

For test [1], the system named is endoderm derived from Pdx1-GFP mouse ES cells. Description: Differentiation of induced endoderm into Pdx1+ pancreatic progenitors. Format: cell-based. The method, then: as §1, §2
Pancreatic progenitors appear in the pancreatic bud at E9.5 and are marked by the expression of the transcription factor Pdx1. […] Using Pdx1-GFP knock-in (Micallef et al., 2005) mouse ES cells the inventors induced definitive endoderm using either of the hit compounds and cultured cells in various conditions for additional six days.

The subject of test [2] is human ES cells (HUES 4 and 8). Description: Sox17 endoderm induction in human ES cells. The test is classed as cell-based. How it is done:
Human embryonic stem cell lines were cultured essentially as described {Cowan, 2004 #6}. Briefly, HUES4, HUES8 and HUES9 cells are routinely cultured on irradiated CF-1 MEF feeder cells in KnockOut DMEM (Gibco) supplemented with 10% KnockOut Serum Replacement (Gibco), 10% human plasma (Invitrogen), 2 mM L-glutamine (L-Glu, Gibco), 1.1 mM 2-mercaptoethanol (Gibco), 1 mM nonessential amino acids (Gibco), 1× penicillin/streptomycin (PS, Gibco) and 10 ng/ml bFGF (Invitrogen). Cells are split at the ratio of 1:10-1:12 every 4-5 days by using 1 mg/ml collagenase type IV. To induce endoderm formation, HUES cells was cultured on MEF feeder cells till 80-90% confluent, then treated with 100 ng/ml Activin A in advanced RPMI (Gibco) supplemented with 1×L-Glu and 0.2% FBS (Gibco), or with combination of 25 ng/ml Wnt3a (R&D systems)+100 ng/ml Activin A (R&D systems) or were exposed to compounds in the same media. At days 4 and 6 of culture cells were analysed for endodermal marker expression, Sox17.
as §2

On to `NC(=O)c1ccc(-c2nc(-c3ccc4c(c3)OCO4)c(-c3ccccn3)[nH]2)cc1` [SB43125, reference compound], for which the “induction of Sox17 protein under co-treatment of IDE1 or IDE2 with the ALK4/5/7 inhibitor” value in the test on mouse ES cells (mouse ES cells) is given as 5.6±1.3%. Also, the figures for the “phosphorylation of Smad2 by IDE1 or IDE2 in the presence of the ALK4/5/7 inhibitor” value in the test with Smad2 and in the test with Smad2 (listed as SB431542) were “strongly attenuated” and “significantly attenuated”, respectively.
As to `CC(C)[C@H]1C(=O)N[C@H](CO)Cc2c[nH]c3cccc(c23)N1C` [Indolactam V, (2S,5S)-1,2,4,5,6,8-Hexahydro-5-(hydroxymethyl)-1-methyl-2-(1-methylethyl)-3H-pyrrolo[4,3,2-gh]-1,4-benzodiazonin-3-one], in test [1] (IDE1 or IDE2 followed by ILV), the “increase of Pdx1+ cells above control treatment at day 12” value was 10 fold. For the same molecule, the “percent Pdx1-GFP expressing pancreatic progenitors at day 6” value in test [1] (IDE1 or IDE2 induced mouse endoderm, second step treatment) is given as 51±7.4%. Further, the “yield of pancreatic progenitors compared to a growth factor based approach” value in test [1] (applied to IDE1 or IDE2 derived endoderm) is “higher yields of pancreatic progenitors”. Besides, in test [1] (cultures treated initially with IDE1 or IDE2 and followed by ILV), the “percent of total cells Pdx1+ at day 12” value is reported as 50%. Also, in test [1] (two-step treatment), the “increase in Pdx1+ cell number compared to known published protocols” value worked out at 4 fold and the “percent of Pdx1+ cells also expressing other pancreatic progenitor markers, including HNF6” value is recorded as 92±5%. Further, the “increase in Pdx1+ cell number compared to the control DMSO treated” value in test [1] (two-step treatment, Pdx1 antibody staining) came out at 10 fold. Further, the “percent of cells positive with Pdx1 antibodies” value in test [1] (two-step treatment: IDE1 and/or IDE2, then Indolactam V) turned out to be 53±6.4%.

B1: Nodal: TGF-β family growth factor, protein inducer of endoderm (protein, UniProt Q96S42 238-347, looked up)
Nodal homolog: HHLPDRSQLCRKVKFQVDFNLIGWGSWIIYPKQYNAYRCEGECPNPVGEEFHPTNHAYIQSLLKRYQPHRVPSTCCAPVKTKPLSMLYVDNGRVLLDHHKDMIVEECGCL
B1: in the test with mouse ES cells, the “percent of total cells Sox17/dsRed double positive” value is listed as 45%. For the same molecule, in the test on mouse ES cells (mouse ES cells), the “percent of ES cells that form (definitive) endoderm, summary statement” value is “about 45%”. Further, the “phosphorylation of Smad2 / activation of the TGF-β pathway” value in the test with Smad2 is recorded as “high level”.

B2: Wnt3a: Wnt growth factor family member (protein, UniProt P56704 19-352, looked up)
Protein Wnt-3a: SYPIWWSLAVGPQYSSLGSQPILCASIPGLVPKQLRFCRNYVEIMPSVAEGIKIGIQECQHQFRGRRWNCTTVHDSLAIFGPVLDKATRESAFVHAIASAGVAFAVTRSCAEGTAAICGCSSRHQGSPGKGWKWGGCSEDIEFGGMVSREFADARENRPDARSAMNRHNNEAGRQAIASHMHLKCKCHGLSGSCEVKTCWWSQPDFRAIGDFLKDKYDSASEMVVEKHRESRGWVETLRPRYTYFKVPTERDLVYYEASPNFCEPNPETGSFGTRDRTCNVSSHGIDGCDLLCCGRGHNARAERRREKCRCVFHWCCYVSCQECTRVYDVHTCK
As for B2, the “synergy / combined effect on Sox17 induction” value with mouse ES cells (mouse ES cells, co-treatment) is “no significant effect”.

B3: Activin A: recombinant TGF-β family growth factor, protein inducer of endoderm (protein, UniProt P08476 311-426, looked up)
Inhibin beta A chain: GLECDGKVNICCKKQFFVSFKDIGWNDWIIAPSGYHANYCEGECPSHIAGTSGSSLSFHSTVINHYRMRGHSPFANLKSCCVPTKLRPMSMLYYDDGQNIIKKDIQNMIVEECGCS
As for B3, the “percent of cells expressing Pdx1 after FGF10, KAAD-cyclopamine and retinoic acid” value in test [1] (label = inducer of the starting endoderm, mouse ES cells) stood at 12.1±4%. In addition, in test [2] (HUES cells, 4 days, IDE1 100 nM, IDE2 200 nM), the “percent of cells expressing Sox17” value amounted to 64±6.3%. For the same molecule, in test [2] (human ESC cultures, 6 days), the “increase of Sox17 expression compared to the vehicle treatment” value was determined as 4 fold and the “percent of total cells expressing Sox17 after 6 days” value was 55-65%. Besides, the “percent of total cells Sox17/dsRed double positive” value with mouse ES cells stood at 45%. Besides, the “percent of ES cells that form (definitive) endoderm, summary statement” value with mouse ES cells (mouse ES cells) is on record as “about 45%”. In addition, the “% of Sox17+ cells compared to IDE1 or IDE2 at all tested time points” value in the test with mouse ES cells (mouse ES cells, 14 days of treatment) is reported as “significant but lower % of Sox17+ cells”. Moreover, the “percentage of cells expressing Sox17 at day 2 of treatment” value in the test with mouse ES cells (mouse ES cells, day 2) is listed as 13%. Moreover, in the test on mouse ES cells (mouse ES cells, day 4), the “percentage of cells expressing Sox17 at day 4 of treatment” value is 28%. The “phosphorylation of Smad2 / activation of the TGF-β pathway” value with Smad2 is recorded as “high level”.
